These results are taken from the supplement of paper PMC10567573.

First the molecules themselves.
B1: ANKRD40 (parent)
chain: SLRENDFIEIELDRQELTYQELLR
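Note: lentivirally expressed fusions sorted by FACS into six bins by GFP to DsRed ratio, PSI derived from sequencing read proportions per bin multiplied by bin number.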

The variants in this series derive from B1. Briefly: protein stability index of a GFP-peptide fusion (GPS, HEK-293T) (PSI 1-6); higher = more stable. Conditions: c terminus: a fixed tail appended.
Take SLRMNDFIEIELDRQELTYQELLR [E4M]: the protein stability index was found to be 2.55.
SLRSNDFIEIELDRQELTYQELLR [E4S]: the protein stability index was 3.21.
For SLRLNDFIEIELDRQELTYQELLR [E4L], the protein stability index worked out at 2.05.
Take SLRYNDFIEIELDRQELTYQELLR [E4Y]: the protein stability index turned out to be 2.17.
Regarding SLRGNDFIEIELDRQELTYQELLR [E4G], the protein stability index was found to be 2.57.
Regarding SLRENDFIEIELDHQELTYQELLR [R14H], the protein stability index stood at 2.97.
Next, SLRENDFIEIELDMQELTYQELLR [R14M]: 1.85; SLRENDFIEIELDQQELTYQELLR [R14Q]: 3.41; SLRENDFIEIELDIQELTYQELLR [R14I]: 2.86.
Consider SLRENDFIEIELDGQELTYQELLR [R14G], for which the protein stability index was 3.
Next, SLRENDFIEIELDRQELTYQELLC [R24C]: 2.72; SLRENDFIEIELDRQELTYQELLG [R24G]: 3.27; SLRENDFIEIELDRQELTYQELLP [R24P]: 3.06.
For SLRENDFIEIELDRQELTYQELLF [R24F], the protein stability index was 2.64.
Under SLRENDFIEIELDRQELTYQELLW [R24W] stands 2.26.
In the case of SLRENDFIEIELDRQELTYQELLI [R24I], the protein stability index was 2.35.
In the case of SLREEDFIEIELDRQELTYQELLR [N5E], the protein stability index was 2.78.
With SLRELDFIEIELDRQELTYQELLR [N5L], the protein stability index worked out at 2.14.
Under SLREADFIEIELDRQELTYQELLR [N5A] stands 2.57; under SLREQDFIEIELDRQELTYQELLR [N5Q], 2.96; under SLREFDFIEIELDRQELTYQELLR [N5F], 2.2.
On to SLREWDFIEIELDRQELTYQELLR [N5W], for which the protein stability index worked out at 1.72.
SLREHDFIEIELDRQELTYQELLR [N5H]: the protein stability index stood at 2.62.
In the case of SLREDDFIEIELDRQELTYQELLR [N5D], the protein stability index stood at 2.82.
Take SLRENDFIEIELDRDELTYQELLR [Q15D]: the protein stability index was 3.59.
On to SLRENDFIEIELDRVELTYQELLR [Q15V], for which the protein stability index came out at 2.44.
Regarding SLRENDFIEIELDRIELTYQELLR [Q15I], the protein stability index was 1.89.
Next, SLRENDFIEIELDRHELTYQELLR [Q15H]: 2.75.
As to SLRENDFIEIELDRLELTYQELLR [Q15L], the protein stability index worked out at 2.78.
Regarding SLRENDFIEIELDRCELTYQELLR [Q15C], the protein stability index was found to be 2.62.
For SLRENDFIEIELDRPELTYQELLR [Q15P], the protein stability index is 2.78.
Consider SLRENDFIEIELDRQELTYEELLR [Q20E], for which the protein stability index was 3.58.
In the case of SLRENQFIEIELDRQELTYQELLR [D6Q], the protein stability index came out at 2.76.
Next, SLRENNFIEIELDRQELTYQELLR [D6N]: 2.99; SLRENVFIEIELDRQELTYQELLR [D6V]: 1.64.
With SLRENWFIEIELDRQELTYQELLR [D6W], the protein stability index amounted to 2.31.
As to SLRENDFIEIELDRQKLTYQELLR [E16K], the protein stability index is 2.93.
SLRENDFIEIELDRQALTYQELLR [E16A]: the protein stability index is 2.8.
Next, SLRENDFIEIELDRQILTYQELLR [E16I]: 2.47; SLRENDFIEIELDRQDLTYQELLR [E16D]: 3.24.
In the case of SLRENDFIEIELDRQRLTYQELLR [E16R], the protein stability index is 3.04.
Take TLRENDFIEIELDRQELTYQELLR [S1T]: the protein stability index is 3.38.
Next, DLRENDFIEIELDRQELTYQELLR [S1D]: 3.12.
Turning to YLRENDFIEIELDRQELTYQELLR [S1Y], the protein stability index stood at 2.3.
As for ALRENDFIEIELDRQELTYQELLR [S1A], the protein stability index came to 2.82.
Turning to SLRENDFIEIELVRQELTYQELLR [D13V], the protein stability index came to 1.78.
As to SLRENDFIEIELGRQELTYQELLR [D13G], the protein stability index amounted to 2.77.
Consider SLRENDFIEIELRRQELTYQELLR [D13R], for which the protein stability index came out at 2.65.
SLRENDFIEIELDRQELTYQETLR [L22T]: the protein stability index came to 3.45.
Next, SLRENDFIEIERDRQELTYQELLR [L12R]: 4.14.
On to SLRENDFIEIETDRQELTYQELLR [L12T], for which the protein stability index was found to be 3.88.
Consider SLRENDFTEIELDRQELTYQELLR [I8T], for which the protein stability index was 4.23.
Consider SLRENDFMEIELDRQELTYQELLR [I8M], for which the protein stability index was determined as 4.11.
On to SLRENDFVEIELDRQELTYQELLR [I8V], for which the protein stability index worked out at 3.62.
For the variant SLRENDFKEIELDRQELTYQELLR [I8K], the protein stability index stood at 4.02.
Regarding SLRENDFNEIELDRQELTYQELLR [I8N], the protein stability index stood at 4.1.
Under SLRENDFHEIELDRQELTYQELLR [I8H] stands 3.99; under SLRENDFIEIELDRQEVTYQELLR [L17V], 2.9; under SLRENDFIEIELDRQEWTYQELLR [L17W], 3.1.
For SLRENDFIEIELDRQEMTYQELLR [L17M], the protein stability index is 2.92.
With SLRENDFIEICLDRQELTYQELLR [E11C], the protein stability index is 2.37.
As to SLRENDFIEIMLDRQELTYQELLR [E11M], the protein stability index is 2.41.
Consider SLRENDFIEIGLDRQELTYQELLR [E11G], for which the protein stability index was 3.26.
Turning to SLRENDFIEIWLDRQELTYQELLR [E11W], the protein stability index is 1.98.
Take SLRENDFIEIQLDRQELTYQELLR [E11Q]: the protein stability index was found to be 2.74.
Consider SLRENDFIEIYLDRQELTYQELLR [E11Y], for which the protein stability index amounted to 2.16.
Take SLRENDFIVIELDRQELTYQELLR [E9V]: the protein stability index was 1.87.
As to SLRENDFIAIELDRQELTYQELLR [E9A], the protein stability index was found to be 2.58.
Take SLRENDFIGIELDRQELTYQELLR [E9G]: the protein stability index was found to be 3.33.
Consider SLRENDYIEIELDRQELTYQELLR [F7Y], for which the protein stability index stood at 3.54.
In the case of SLRENDEIEIELDRQELTYQELLR [F7E], the protein stability index worked out at 4.46.
SLRENDFIEIELDRQELTKQELLR [Y19K]: the protein stability index was 3.99.
In the case of SLRENDFIEIELDRQELTNQELLR [Y19N], the protein stability index is 4.22.
In the case of SLRENDFIEIELDRQELTYQCLLR [E21C], the protein stability index was determined as 1.94.
Under SLRENDFIEIELDRQELTYQVLLR [E21V] stands 1.99; under SLRENDFIEIELDRQELTYQMLLR [E21M], 1.92.
In the case of SLRENDFIEIELDRQELTYQPLLR [E21P], the protein stability index was found to be 2.36.
On to SLRENDFIEIELDRQELTYQELKR [L23K], for which the protein stability index turned out to be 3.85.
Turning to SLRENDFIEIELDRQELTYQELSR [L23S], the protein stability index amounted to 4.
Consider SLRENDFIEIELDRQELTYQELYR [L23Y], for which the protein stability index stood at 3.43.
For SLRENDFIEIELDRQELTYQELCR [L23C], the protein stability index came out at 2.97.
Regarding SLEENDFIEIELDRQELTYQELLR [R3E], the protein stability index came out at 2.85.
Regarding SLLENDFIEIELDRQELTYQELLR [R3L], the protein stability index turned out to be 2.29.
With SVRENDFIEIELDRQELTYQELLR [L2V], the protein stability index is 3.12.
Consider SPRENDFIEIELDRQELTYQELLR [L2P], for which the protein stability index turned out to be 3.49.
SQRENDFIEIELDRQELTYQELLR [L2Q]: the protein stability index amounted to 3.48.
Turning to SMRENDFIEIELDRQELTYQELLR [L2M], the protein stability index was 3.09.
Under SLRENDFIEIELDRQELDYQELLR [T18D] stands 3.71; under SLRENDFIEIELDRQELCYQELLR [T18C], 2.46; under SLRENDFIEMELDRQELTYQELLR [I10M], 3.62.
For SLRENDFIEHELDRQELTYQELLR [I10H], the protein stability index is 4.34.
Turning to SLRENDFIECELDRQELTYQELLR [I10C], the protein stability index is 3.69.
For the variant SLRENDFIETELDRQELTYQELLR [I10T], the protein stability index was 4.06.
On to SLRENDFIEVELDRQELTYQELLR [I10V], for which the protein stability index was 3.32.
